The target in this experiment is integrin (of mouse fibroblasts, members not named for this experiment). The settings on record: scale: fold relative to the unmodified substrate.

Drawing on PMC5508132, this text covers area of fibroblasts on RGDS surfaces after 24 h, relative to the unmodified substrate for one molecule.

Non-standard residues stand in square brackets, D forms with d. Groups on a side chain read outwards from the residue. No end group written: not given here. Phe(4-N3) = [N-]=[N+]=Nc1ccc(C[C@H](N)C(=O)O)cc1; ssDNA = not defined here

B1: RGDS P-DNA (F^azGGRGDS peptide conjugated to ssDNA) (peptide)
peptide: [Phe(4-N3)]([DIBAC-ssDNA])GGRGDS-NH2
modifications: reading uncertain; also: printed as F^az^GGRGDS
Take B1: the area of fibroblasts on RGDS surfaces after 24 h, relative to the unmodified substrate was found to be 6.
